Results on 4 molecules are retold here after article PMC5472792, “Bub1 positions Mad1 close to KNL1 MELT repeats to promote checkpoint signalling” (Nature Communications, 2017).

Square brackets hold non-standard residues; d marks the D form. Ends that are not written are not given here. * marks the point of attachment. Biotin = O=C1N[C@H]2[C@H](CS[C@H]2CCCCC(=O)*)N1; Nle = CCCC[C@H](N)C(=O)O

One assay deals with T1, His-Strep-Mad1 597–718 (human, UniProt Q9Y6D9 597-718).
T1 construct: composition confirmed by multi-angle light scattering; also called Mad1 C-terminal fragment; source: E. coli BL21(DE3), purified (HiTrap Ni column, Superdex 75)
T1 sequence (looked up): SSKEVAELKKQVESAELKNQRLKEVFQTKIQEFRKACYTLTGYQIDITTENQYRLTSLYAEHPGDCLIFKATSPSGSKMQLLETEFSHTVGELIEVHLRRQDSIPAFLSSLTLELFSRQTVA
As to the kind of experiment: SPR; N-terminally biotinylated Bub1 peptides captured (~50 RU) on a streptavidin-coated CM5 chip, Mad1 proteins injected; Biacore T200, 25 °C; 25 mM Tris pH 7.8, 150 mM NaCl, 10 mM MgCl2, 0.25 M TCEP, 0.005% Surfactant P-20; steady-state affinity model. To be noted: both partners purified. In general terms: In SPR one partner is held on a chip, and binding of the other changes the refractive index at the surface.

Another assay has as its system GST-Bub1 425–500. Kind of assay: In vitro phosphorylation of GST-Bub1, mass spectrometry. Format: biochemical, human. Here is the method: To identify mitotic kinases able to phosphorylate Bub1 on Ser459 and Thr461 we performed in vitro phosphorylation assays with candidate kinases.
A similar set-up was used for analysing the phosphorylated GST-Bub1 except that an EASY-nLC 1200 UHPLC system connected to an Orbitrap Q-Exactive HF was used and the acetonitrile gradient was run for 77 min. The samples were analysed using a ‘fast' acquisition mode with a normalized collision energy (NCE) of 25 and raw data analysed with MaxQuant software suit version 1.5.7.4.
GST- Bub1 (425–500) was expressed in BL21(DE3) cells at 18 °C overnight with 0.5 mM IPTG in the medium. The bacteria were lysed in 50 mM Tris-HCl pH 7.4, 300 mM NaCl, 10% glycerol, 5 mM β-mercaptoethanol, 1 mM PMSF, plus Complete-EDTA free protease inhibitors (Roche) using a high pressure homogenizer. Lysates were cleared by centrifugation and incubated with pre-equilibrated Glutathione-Fast Flow (GE Healthcare) beads for 2 h at 4 °C and eluted with GST-elution buffer at room temperature (50 mM Tris pH 8.8, 300 mM NaCl, 10% glycerol, 5 mM β-mercaptoethanol, 20 mM reduced glutathione). Elutions were pooled and run on Superdex 200 column (GE Healthcare) in PBS with 8.7% glycerol and 5 mM mercaptoethanol. Peak fractions were aliquoted and stored at −80 °C.
500 μM ATP and 125 nM Calyculin A (Cell Signaling) were added and the reactions were incubated at 30 °C for 1 h. Controls were incubated in kinase buffer and Calyculin A only. 6 μg of phosphorylated protein was resolved on NuPAGE Novex 4–12% Bis-Tris protein gels, which were fixed and stained by Colloidal Blue Staining (Thermo Scientific). The band corresponding to GST-Bub1 was cut out and analysed by mass spectrometry.

For a further assay, the system named is Bub1 and KNL1. As to the kind of experiment: BioID proximity biotinylation. The assay is classed as cell-based, human. An excerpt:
We speculated that CD1 might engage in a protein-protein interaction that is critical for checkpoint signalling. Mad1 appeared to be the only core component of the checkpoint for which we could see an effect of removing the CD1 on its kinetochore levels (Supplementary Fig. 1 for Cdc20 and ref. [33] for BubR1, Mad1). However, an interaction between human Mad1 and Bub1 cannot be detected in immunoprecipitation experiments. To determine whether there was an interaction between human Mad1 and Bub1, we first developed an assay for looking at transient and/or weak Mad1 interactions in vivo. […] The purification and detection of biotinylated proteins were highly robust and we detected multiple Mad1 peptides upon addition of biotin, as expected (Supplementary Fig. 5C). Using a quantitative mass spectrometry SILAC approach allowed us to compare the proximity of proteins to the N terminus versus the C terminus of Mad1. […]
Figure 3 Bub1 directly interacts with Mad1. (a) Nocodazole arrested HeLa cells stably expressing the indicated Mad1-BirA or BirA-Mad1 fusion protein at near endogenous levels were analyzed 16 h after induction with doxycyclin with or without exposure to 25 μM biotin. […] Bound Bub1 protein was detected by blotting for FLAG. (e) Quantification of three independent experiments as in d with WT binding set to 1. […]

[1] abbreviates: GST-Bub1 425-500, 30 °C for 1 h, 500 μM ATP, LC-MS, kinase-free control 0.

B1: biotinylated CD1 peptide (residues 449–480), unphosphorylated (peptide, UniProt O43683 449-480, looked up)
peptide: Biotin-VQATPSKVQPSPTVHTKEALGFI[Nle]N[Nle]FQAPTL
notes: Bub1, human, residues 449–480 (CD1 and surrounding residues); also called WT; unphosphorylated CD1 peptide; source: synthetic peptide, bought: Biosyntan Gmbh
Broadly, the Kd is the free concentration of one partner at which half of the binding sites on the other are occupied at equilibrium, for simple one-to-one binding. A higher Kd goes with a looser complex. B1: binding in the assay with His-Strep-Mad1 597–718 was characterised by a dissociation constant (Kd) of 304 µM.

B2: Mps1: purified kinase (Life Technologies) (protein, UniProt P33981 1-857, looked up)
Dual specificity protein …: MESEDLSGRELTIDSIMNKVRDIKNKFKNEDLTDELSLNKISADTTDNSGTVNQIMMMANNPEDWLSLLLKLEKNSVPLSDALLNKLIGRYSQAIEALPPDKYGQNESFARIQVRFAELKAIQEPDDARDYFQMARANCKKFAFVHISFAQFELSQGNVKKSKQLLQKAVERGAVPLEMLEIALRNLNLQKKQLLSEEEKKNLSASTVLTAQESFSGSLGHLQNRNNSCDSRGQTTKARFLYGENMPPQDAEIGYRNSLRQTNKTKQSCPFGRVPVNLLNSPDCDVKTDDSVVPCFMKRQTSRSECRDLVVPGSKPSGNDSCELRNLKSVQNSHFKEPLVSDEKSSELIITDSITLKNKTESSLLAKLEETKEYQEPEVPESNQKQWQSKRKSECINQNPAASSNHWQIPELARKVNTEQKHTTFEQPVFSVSKQSPPISTSKWFDPKSICKTPSSNTLDDYMSCFRTPVVKNDFPPACQLSTPYGQPACFQQQQHQILATPLQNLQVLASSSANECISVKGRIYSILKQIGSGGSSKVFQVLNEKKQIYAIKYVNLEEADNQTLDSYRNEIAYLNKLQQHSDKIIRLYDYEITDQYIYMVMECGNIDLNSWLKKKKSIDPWERKSYWKNMLEAVHTIHQHGIVHSDLKPANFLIVDGMLKLIDFGIANQMQPDTTSVVKDSQVGTVNYMPPEAIKDMSSSRENGKSKSKISPKSDVWSLGCILYYMTYGKTPFQQIINQISKLHAIIDPNHEIEFPDIPEKDLQDVLKCCLKRDPKQRISIPELLAHPYVQIQTHPVNQMAKGTTEEMKYVLGQLVGLNSPNSILKAAKTLYEHYSGGESHNSSSSKTFEKKRGKK
On to B2, for which, in the assay on GST-Bub1 425–500 (setting [1]), the “intensity of phospho-peptide 456-VQPS(Phos)PTVHTK (pS459)” value came out at 0 and the “intensity of phospho-peptide 456-VQPSPT(Phos)VHTK (pT461)” value was 7,84 E+08. For the same molecule, in the assay with GST-Bub1 425–500 (Ser459 and Thr461, mass spectrometry), the “phosphorylation of GST-Bub1 425–500 (in words)” value is “phosphorylation of Thr461 but no phosphorylation on Ser459”.

B3: Mad1-BirA: promiscuous biotin ligase BirA fused to the C terminus of Mad1 (protein)
chain: MEDLGENTMVLSTLRSLNNFISQRVEGGSGLDISTSAPGSLQMQYQQSMQLEERAEQIRSKSHLIQVEREKMQMELSHKRARVELERAASTSARNYEREVDRNQELLTRIRQLQEREAGAEEKMQEQLERNRQCQQNLDAASKRLREKEDSLAQAGETINALKGRISELQWSVMDQEMRVKRLESEKQELQEQLDLQHKKCQEANQKIQELQASQEARADHEQQIKDLEQKLSLQEQDAAIVKNMKSELVRLPRLERELKQLREESAHLREMRETNGLLQEELEGLQRKLGRQEKMQETLVGLELENERLLAKLQSWERLDQTMGLSIRTPEDLSRFVVELQQRELALKDKNSAVTSSARGLEKARQQLQEELRQVSGQLLEERKKRETHEALARRLQKRVLLLTKERDGMRAILGSYDSELTPAEYSPQLTRRMREAEDMVQKVHSHSAEMEAQLSQALEELGGQKQRADMLEMELKMLKSQSSSAEQSFLFSREEADTLRLKVEELEGERSRLEEEKRMLEAQLERRALQGDYDQSRTKVLHMSLNPTSVARQRLREDHSQLQAECERLRGLLRAMERGGTVPADLEAAAASLPSSKEVAELKKQVESAELKNQRLKEVFQTKIQEFRKACYTLTGYQIDITTENQYRLTSLYAEHPGDCLIFKATSPSGSKMQLLETEFSHTVGELIEVHLRRQDSIPAFLSSLTLELFSRQTVA
modifications: left off: BirA, C-terminal, kept
As to B3, in the assay on Bub1 and KNL1 (SILAC mass spectrometry, single experiment, and western blot), the “biotinylation of Bub1, BubR1 and Cdc20 (proximity), Mad1-BirA vs BirA-Mad1” value is given as “more efficiently labelled with biotin”.

B4: MAD1 EFR/AAA: Mad1-BirA with Glu710, Phe712 and Arg714 mutated to Ala (protein)
chain: MEDLGENTMVLSTLRSLNNFISQRVEGGSGLDISTSAPGSLQMQYQQSMQLEERAEQIRSKSHLIQVEREKMQMELSHKRARVELERAASTSARNYEREVDRNQELLTRIRQLQEREAGAEEKMQEQLERNRQCQQNLDAASKRLREKEDSLAQAGETINALKGRISELQWSVMDQEMRVKRLESEKQELQEQLDLQHKKCQEANQKIQELQASQEARADHEQQIKDLEQKLSLQEQDAAIVKNMKSELVRLPRLERELKQLREESAHLREMRETNGLLQEELEGLQRKLGRQEKMQETLVGLELENERLLAKLQSWERLDQTMGLSIRTPEDLSRFVVELQQRELALKDKNSAVTSSARGLEKARQQLQEELRQVSGQLLEERKKRETHEALARRLQKRVLLLTKERDGMRAILGSYDSELTPAEYSPQLTRRMREAEDMVQKVHSHSAEMEAQLSQALEELGGQKQRADMLEMELKMLKSQSSSAEQSFLFSREEADTLRLKVEELEGERSRLEEEKRMLEAQLERRALQGDYDQSRTKVLHMSLNPTSVARQRLREDHSQLQAECERLRGLLRAMERGGTVPADLEAAAASLPSSKEVAELKKQVESAELKNQRLKEVFQTKIQEFRKACYTLTGYQIDITTENQYRLTSLYAEHPGDCLIFKATSPSGSKMQLLETEFSHTVGELIEVHLRRQDSIPAFLSSLTLALASAQTVA
modifications: left off: BirA, C-terminal, kept
notes: Mad1-BirA with Glu710, Phe712 and Arg714 mutated to Ala
Turning to B4, in the assay with Bub1 and KNL1 (nocodazole arrested HeLa, 25 μM biotin, western blot, representative of two independent experiments), the “biotinylation of Bub1 and KNL1” value was “did not affect the biotinylation of Bub1 and KNL1”.
